Substrate: O=C(O)c1ccc(O)cc1
Experiment: cells, lysate or membranes

B1: E. coli UbiA (EcUbiA) (Escherichia coli K-12; R60A) (protein)
chain: MEWSLTQNKLLAFHRLMRTDKPIGALLLLWPTLWALWVATPGVPQLWILAVFVAGVWLMAAAGCVVNDYADRKFDGHVKRTANRPLPSGAVTEKEARALFVVLVLISFLLVLTLNTMTILLSIAALALAWVYPFMKRYTHLPQVVLGAAFGWSIPMAFAAVSESVPLSCWLMFLANILWAVAYDTQYAMVDRDDDVKIGIKSTAILFGQYDKLIIGILQIGVLALMAIIGELNGLGWGYYWSILVAGALFVYQQKLIANREREACFKAFMNNNYVGLVLFLGLAMSYWHF
- Km: 3000 µM

— article PMC4390396
